From paper doi:10.1101/2023.11.29.569220, “Spartin-mediated lipid transfer facilitates lipid droplet turnover” (bioRxiv, 2023)
Values belong to the molecule of their own block, whether it stands above or below them.

Legend:
Experiment in all cases: native gel or EMSA; blue native PAGE, 4%-16% Bis-Tris gel, 4C, 1-2 ug protein purified in buffer A (50 mM HEPES, 500 mM NaCl, pH 8.0, 1 mM TCEP, 10% glycerol); migration according to MW against NativeMark standards
[1] = molecular target: CeSpartin (C. elegans spartin) (C. elegans)
[2] = molecular target: CtSpartinL (spartin-like protein from Chaetomium thermophilum) (Chaetomium thermophilum)
[3] = molecular target: the molecule itself

- stoichiometry N [1]: 3
Molecule: CeSpartin (C. elegans spartin) (natural protein)

- stoichiometry N [2]: 3
Molecule: CtSpartinL (spartin-like protein from Chaetomium thermophilum) (natural protein)

B1: HsSpartin (human spartin, SPG20) (natural protein, UniProt Q8N0X7 1-666, looked up)
chain: MEQEPQNGEPAEIKIIREAYKKAFLFVNKGLNTDELGQKEEAKNYYKQGIGHLLRGISISSKESEHTGPGWESARQMQQKMKETLQNVRTRLEILEKGLATSLQNDLQEVPKLYPEFPPKDMCEKLPEPQSFSSAPQHAEVNGNTSTPSAGAVAAPASLSLPSQSCPAEAPPAYTPQAAEGHYTVSYGTDSGEFSSVGEEFYRNHSQPPPLETLGLDADELILIPNGVQIFFVNPAGEVSAPSYPGYLRIVRFLDNSLDTVLNRPPGFLQVCDWLYPLVPDRSPVLKCTAGAYMFPDTMLQAAGCFVGVVLSSELPEDDRELFEDLLRQMSDLRLQANWNRAEEENEFQIPGRTRPSSDQLKEASGTDVKQLDQGNKDVRHKGKRGKRAKDTSSEEVNLSHIVPCEPVPEEKPKELPEWSEKVAHNILSGASWVSWGLVKGAEITGKAIQKGASKLRERIQPEEKPVEVSPAVTKGLYIAKQATGGAAKVSQFLVDGVCTVANCVGKELAPHVKKHGSKLVPESLKKDKDGKSPLDGAMVVAASSVQGFSTVWQGLECAAKCIVNNVSAETVQTVRYKYGYNAGEATHHAVDSAVNVGVTAYNINNIGIKAMVKKTATQTGHTLLEDYQIVDNSQRENQEGAANVNVRGEKDEQTKEVKEAKKKDK
notes: Spartin (SPG20), human, Uniprot Q8N0X7, full-length; gene synthesized and cloned into pCMV10 with an N-terminal 3xFLAG tag; The Expi293 methods describe only elution with 3xFLAG peptide and no protease step; source: Expi293 cells, purified (anti-FLAG resin); not shown: 3xFLAG, N-terminal, cleaved
- stoichiometry N [3]: ~3
